Results reported in patent US20150344570A1 (published 2015).

T1: FcγRIIb (human, UniProt P31994 43-217)
T1 construct: extracellular domain; also called FcgRIIb; CD32B
T1 sequence (looked up): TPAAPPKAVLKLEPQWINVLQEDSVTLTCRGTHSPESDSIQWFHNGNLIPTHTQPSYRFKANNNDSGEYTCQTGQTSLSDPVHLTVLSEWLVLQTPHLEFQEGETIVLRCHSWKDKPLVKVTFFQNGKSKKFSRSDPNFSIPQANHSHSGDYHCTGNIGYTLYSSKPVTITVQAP

T2: FcγRIIa H (human, UniProt P12318 34-217)
T2 construct: extracellular domain; also called FcgRIIa H; 2aH; not shown: His tag at the C terminus
T2 sequence (looked up): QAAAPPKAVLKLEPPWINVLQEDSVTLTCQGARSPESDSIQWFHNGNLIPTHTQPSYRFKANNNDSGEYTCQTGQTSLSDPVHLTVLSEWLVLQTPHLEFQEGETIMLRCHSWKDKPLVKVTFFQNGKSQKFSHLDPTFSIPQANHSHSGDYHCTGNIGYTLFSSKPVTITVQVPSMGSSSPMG


Experiments:
FcγRIa [1] = target: T3, FcγRIa (human, UniProt P12314 16-292); test: ratio of He/Con_1a to He/Con_2b (FcγRIa over FcγRIIb), SPR
T3 construct: extracellular domain; also called FcgRI; CD64
T3 sequence (P12314 16-292): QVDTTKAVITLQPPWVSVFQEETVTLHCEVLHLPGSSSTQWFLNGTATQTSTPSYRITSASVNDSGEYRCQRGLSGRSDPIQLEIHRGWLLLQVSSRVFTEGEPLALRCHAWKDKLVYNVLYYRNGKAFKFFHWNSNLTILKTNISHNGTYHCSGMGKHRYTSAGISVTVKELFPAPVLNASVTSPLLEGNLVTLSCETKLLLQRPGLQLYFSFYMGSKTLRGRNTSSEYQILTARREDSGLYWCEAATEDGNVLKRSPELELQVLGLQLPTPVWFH
Summary of the method: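 Binding responses come from Biacore SPR with FcγR as analyte over antibody captured on an antigen-peptide surface. Conditions: HBS-EP+ buffer, 25 °C.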

FcγRIa [2] = target: T3, FcγRIa; test: SPR (Biacore), captured antibody, soluble FcγR; relative to GpH7-A5/GpH7-B3/GpL16-k0 = 100
FcγRIIb = target: T1, FcγRIIb; test: as above
FcγRIIa H [3] = target: T2, FcγRIIa H; test: SPR (Biacore); He/Con_2aH divided by He/Con_2b (FcγRIIa H versus FcγRIIb)
Procedure: (§1) The heterodimerized antibodies He Abs in which one of the H chains was introduced with an alteration were assayed for their binding activities to each activating FcγR and inhibitory FcγR according to the method described in Example 4. […] The activating FcγRs in FIGS. 26, 27, 28, and 29 are FcγRIa, FcγRIIa (R), FcγRIIa (H), and FcγRIIIa, respectively.
(§2) Analysis of interaction between objective antibody and the FcγR was carried out using Biacore T100 (GE Healthcare). HBS-EP+ (GE Healthcare) was used as the running buffer, and the measurement temperature was set to 25° C. Chips produced by immobilizing the antigen peptide by the amine coupling method to a Series S Sencor Chip CM5 (GE Healthcare), or alternatively, chips produced by allowing preliminarily biotinylated antigen peptides to interact with and immobilize onto a Series S Sensor Chip SA (certified) (GE Healthcare) were used. Antibodies of interest were captured onto an antigen peptide-immobilized chip, and allowed to interact to each FcγR diluted with running buffer. To regenerate and repeatedly use the chip, the antibodies captured on the chip were washed off by reacting 10 mM glycine-HCl, pH 1.5.

FcγRIIa H [4] = target: T2, FcγRIIa H; test: SPR (Biacore), FcγR passed over captured antibody; binding amount as % of control GpH7-A5/GpH7-B3/GpL16-k0 (=100)
Procedure: as §1, §2

He_1a/2b (Ia/IIb) (FcγRIa [1])	He/Con_1a (FcγRIa [2])	He/Con_2b (FcγRIIb)	He_2aH/2b (IIaH/IIb) (FcγRIIa H [3]) [ratio]	He/Con_2aH (FcγRIIa H [4])	Binder
2.27	93.3 % of control	41 % of control	–	–	GpH7-A5/GpH7-B3 variant P329_13S/GpL16-k0 (antibody, human IgG1, kappa, He Ab; mutation in the GpH7-B3 chain only; also called He Ab) heavy 1: not shown heavy 2: not shown light: DIVMTQSPLSLPVTPGEPASISCQASESLVHSNRNTYLHWYLQKPGQSPQLLIYKVSNRFSGVPDRFSGSGSGTDFTLKISRVEAEDVGVYYCSQNTHVPPTFGQGTKVEIERTVAAPSVFIFPPSDEQLKSGTASVVCLLNNFYPREAKVQWKVDNALQSGNSQESVTEQDSKDSTYSLSSTLTLSKADYEKHKVYACEVTHQGLSSPVTKSFNRGEC
1.22	111 % of control	91 % of control	–	–	GpH7-A5/GpH7-B3 variant T335_11K/GpL16-k0 (antibody, human IgG1, kappa, He Ab; mutation in the GpH7-B3 chain only; also called He Ab) heavy 1: not shown heavy 2: not shown light: DIVMTQSPLSLPVTPGEPASISCQASESLVHSNRNTYLHWYLQKPGQSPQLLIYKVSNRFSGVPDRFSGSGSGTDFTLKISRVEAEDVGVYYCSQNTHVPPTFGQGTKVEIERTVAAPSVFIFPPSDEQLKSGTASVVCLLNNFYPREAKVQWKVDNALQSGNSQESVTEQDSKDSTYSLSSTLTLSKADYEKHKVYACEVTHQGLSSPVTKSFNRGEC
2.31	70.7 % of control	30.7 % of control	–	–	GpH7-A5/GpH7-B3 variant P329_19Q/GpL16-k0 (antibody, human IgG1, kappa, He Ab; mutation in the GpH7-B3 chain only; also called He Ab) heavy 1: not shown heavy 2: not shown light: DIVMTQSPLSLPVTPGEPASISCQASESLVHSNRNTYLHWYLQKPGQSPQLLIYKVSNRFSGVPDRFSGSGSGTDFTLKISRVEAEDVGVYYCSQNTHVPPTFGQGTKVEIERTVAAPSVFIFPPSDEQLKSGTASVVCLLNNFYPREAKVQWKVDNALQSGNSQESVTEQDSKDSTYSLSSTLTLSKADYEKHKVYACEVTHQGLSSPVTKSFNRGEC

Second part, the binder before the results:

Binder	He_1a/2b (Ia/IIb) (FcγRIa [1])	He/Con_1a (FcγRIa [2])	He/Con_2b (FcγRIIb)	He_2aH/2b (IIaH/IIb) (FcγRIIa H [3]) [ratio]	He/Con_2aH (FcγRIIa H [4])
GpH7-A5/GpH7-B3 variant P329_12R/GpL16-k0 (antibody, human IgG1, kappa, He Ab; mutation in the GpH7-B3 chain only; also called He Ab) heavy 1: not shown heavy 2: not shown light: DIVMTQSPLSLPVTPGEPASISCQASESLVHSNRNTYLHWYLQKPGQSPQLLIYKVSNRFSGVPDRFSGSGSGTDFTLKISRVEAEDVGVYYCSQNTHVPPTFGQGTKVEIERTVAAPSVFIFPPSDEQLKSGTASVVCLLNNFYPREAKVQWKVDNALQSGNSQESVTEQDSKDSTYSLSSTLTLSKADYEKHKVYACEVTHQGLSSPVTKSFNRGEC	4.22	74.3 % of control	17.6 % of control	–	–
GpH7-A5/GpH7-B3 variant P329_20W/GpL16-k0 (antibody, human IgG1, kappa, He Ab; mutation in the GpH7-B3 chain only; also called He Ab) heavy 1: not shown heavy 2: not shown light: DIVMTQSPLSLPVTPGEPASISCQASESLVHSNRNTYLHWYLQKPGQSPQLLIYKVSNRFSGVPDRFSGSGSGTDFTLKISRVEAEDVGVYYCSQNTHVPPTFGQGTKVEIERTVAAPSVFIFPPSDEQLKSGTASVVCLLNNFYPREAKVQWKVDNALQSGNSQESVTEQDSKDSTYSLSSTLTLSKADYEKHKVYACEVTHQGLSSPVTKSFNRGEC	2.15	96.9 % of control	45.1 % of control	–	–
GpH7-A5/GpH7-B3 variant P329_14T/GpL16-k0 (antibody, human IgG1, kappa, He Ab; mutation in the GpH7-B3 chain only; also called He Ab) heavy 1: not shown heavy 2: not shown light: DIVMTQSPLSLPVTPGEPASISCQASESLVHSNRNTYLHWYLQKPGQSPQLLIYKVSNRFSGVPDRFSGSGSGTDFTLKISRVEAEDVGVYYCSQNTHVPPTFGQGTKVEIERTVAAPSVFIFPPSDEQLKSGTASVVCLLNNFYPREAKVQWKVDNALQSGNSQESVTEQDSKDSTYSLSSTLTLSKADYEKHKVYACEVTHQGLSSPVTKSFNRGEC	2.37	89.7 % of control	37.9 % of control	–	–
GpH7-A5/GpH7-B3 variant P329_16H/GpL16-k0 (antibody, human IgG1, kappa, He Ab; mutation in the GpH7-B3 chain only; also called He Ab) heavy 1: not shown heavy 2: not shown light: DIVMTQSPLSLPVTPGEPASISCQASESLVHSNRNTYLHWYLQKPGQSPQLLIYKVSNRFSGVPDRFSGSGSGTDFTLKISRVEAEDVGVYYCSQNTHVPPTFGQGTKVEIERTVAAPSVFIFPPSDEQLKSGTASVVCLLNNFYPREAKVQWKVDNALQSGNSQESVTEQDSKDSTYSLSSTLTLSKADYEKHKVYACEVTHQGLSSPVTKSFNRGEC	2.45	95.6 % of control	39.1 % of control	–	–
GpH7-A5/GpH7-B3 variant L328_11K/GpL16-k0 (antibody, human IgG1, kappa, He Ab: mutation in the GpH7-B3 H chain only) heavy 1: not shown heavy 2: not shown light: DIVMTQSPLSLPVTPGEPASISCQASESLVHSNRNTYLHWYLQKPGQSPQLLIYKVSNRFSGVPDRFSGSGSGTDFTLKISRVEAEDVGVYYCSQNTHVPPTFGQGTKVEIERTVAAPSVFIFPPSDEQLKSGTASVVCLLNNFYPREAKVQWKVDNALQSGNSQESVTEQDSKDSTYSLSSTLTLSKADYEKHKVYACEVTHQGLSSPVTKSFNRGEC	–	–	–	4.27	32.2 relative, control = 100
